Measurements published in patent publication US20180326022A1, “COMPOSITIONS AND METHODS FOR IMPROVING HEART FUNCTION AND TREATING HEART FAILURE” (The Trustees of the University of Pennsylvania, priority 2017, published 2018).

Biological target: detyrosinated microtubules (rat cardiomyocytes) (rat)
Assay: cell-based or functional assay

Detyr (% cell area), immunofluorescence, TTL overexpressing cells (null: 43.9): 12.9 % cell area
Substance: human tubulin tyrosine ligase (TTL) (from UniProt Q8NG68 1-377)
